According to patent US20250231186A1:

What was measured:
[1] = molecular target: MCC 88-103 peptide tethered to full-length I-E^k on M12 cells (mouse) (UniProt P04224); assay: cell coupling (CATS) of B10.A CD4+ T cells with M12 cells pre-blocked with 20 µg/mL 14-4-4S; competitor: TCRs of B10.A CD4+ T cells
[2] = molecular target: T102S altered peptide ligand of MCC tethered to full-length I-E^k on M12 cells (mouse) (UniProt P04224); assay: as above
[3] = molecular target: mouse hemoglobin d allele Hb 64-76 peptide tethered to full-length I-E^k on M12 cells (mouse) (UniProt P04224); assay: as above
[4] = molecular target: I-E^k MHCII on tethered pMHC-II expressing M12 cells; assay: cell coupling (CATS) of B10.A CD4+ T cells with pre-blocked pMHC+ M12 cells
[5] = molecular target: 5c.c7 TCR on CD4+ T cells from 5c.c7 TCR Rag KO mice (mouse); assay: T102S tetramer staining of transferred 5c.c7 CD4+ T cells, flow cytometry
[6] = molecular target: MCC 88-103 peptide tethered to full-length I-E^k on M12 cells (mouse) (UniProt P04224); assay: cell coupling (CATS) of 5c.c7 CD4+ T cells with MCC M12 cells, Hb M12 as dump, flow cytometry
[7] = molecular target: T102S altered peptide ligand of MCC tethered to full-length I-E^k on M12 cells (mouse) (UniProt P04224); assay: cell coupling (CATS) of transferred 5c.c7 CD4+ T cells with T102S M12 cells, flow cytometry
[8] = molecular target: MCC 88-103 peptide tethered to full-length I-E^k on M12 cells (mouse) (UniProt P04224); assay: cell coupling (CATS) with MCC M12 cells, flow cytometry

14-4-4S anti-I-E^k MHCII antibody showed a fold decrease in coupling when blocked [1] of 4 fold, a fold decrease in coupling when blocked [2] of 3 fold and a fold decrease in coupling when blocked [3] of 4 fold. It also gave a fold lower relative coupling in blocked state [4] of 3 to 5 fold.

Substance “T102S:I-E^k tetramer (from UniProt P22629 37-163; P04224 26-216) (peptide-MHC)” has a percentage of 5c.c7 CD4+ T cells identified [5] of 0%.

Substance “5c.c7 TCR on CD4+ T cells from 5c.c7 TCR Rag KO mice” has a coupling percentage [6] of 60 to 85% and a percentage of 5c.c7 CD4+ T cells identified [7] of 70%.

“5c.c7 TCR expressed on 58α^-β^- hybridoma cells (α chain fused C-terminally to mEGFP)” showed a coupling percentage [8] of 30%.
